Laboratory results published in patent publication US20110300138A1 (published 2011).
Read-outs that look alike come from different tables or passages of the source.

Key:
[1] = target: human TSHR (wild type, full length) expressed in CHO cells (human) (UniProt P16473); test: cell-based or functional assay
[2] = target: human TSH receptor (full length, wild type) expressed on CHO cells (human) (UniProt P16473); test: cell-based or functional assay
[3] = target: human TSH receptor (full length, wild type) expressed in CHO cells (human) (UniProt P16473); test: cell-based or functional assay
[4] = target: human TSH receptor (TSHR), wild type, expressed in CHO cells (human) (UniProt P16473); test: cell-based or functional assay
[5] = target: human TSHR expressed in CHO cells (human) (UniProt P16473); test: cell-based or functional assay
[6] = target: human TSHR (wild type, full length) expressed in CHO cells (human) (UniProt P16473); test: cell-based or functional assay; remark: listed apart in the source
TSHR260-AP (human) = test: TSHR260-AP bridge ELISA (full length TSHR on wells, TSHR260-AP in solution); IgG 10 µg/mL diluted in HBD serum
[7] = target: TSHR260-alkaline phosphatase (TSHR260-AP) (human) (UniProt P05187); test: TSHR260-AP bridge ELISA, full length TSHR on wells; 10 µg/mL, diluted in assay buffer

Cyclic AMP concentration; 0.1 µg/mL 5C9 IgG + T5 [1]: 5.6 pmol/mL
Cyclic AMP concentration; 1 µg/mL 5C9 IgG + T5 [1]: 1.4 pmol/mL
Cyclic AMP concentration; 10 µg/mL 5C9 IgG + T5 [1]: 0.7 pmol/mL
Cyclic AMP concentration; 100 µg/mL 5C9 IgG + T5 [1]: 0.7 pmol/mL
Cyclic AMP concentration; 100 µg/mL 5C9 IgG alone [1]: 1.1 pmol/mL
% Inhibition of M22 IgG (3 ng/mL) stimulation; 0.001 µg/ml 5C9 IgG [2]: 0%
% Inhibition of M22 IgG (3 ng/mL) stimulation; 0.01 µg/ml 5C9 IgG [2]: 0%
% Inhibition of M22 IgG (3 ng/mL) stimulation; 0.1 µg/ml 5C9 IgG [2]: 91.2%
% Inhibition of M22 IgG (3 ng/mL) stimulation; 0.5 µg/ml 5C9 IgG [2]: 97%
% Inhibition of M22 IgG (3 ng/mL) stimulation; 1 µg/ml 5C9 IgG [2]: 97.6%
% Inhibition of M22 IgG (3 ng/mL) stimulation; 5 µg/ml 5C9 IgG [2]: 99.4%
% Inhibition of M22 IgG (3 ng/mL) stimulation; 10 µg/ml 5C9 IgG [2]: 99.1%
% Inhibition of M22 IgG (3 ng/mL) stimulation; 50 µg/ml 5C9 IgG [2]: 99.1%
% Inhibition of M22 IgG (3 ng/mL) stimulation; 100 µg/ml 5C9 IgG [2]: 98.8%
Cyclic AMP concentration; 3 ng/mL M22 IgG + 0.001 µg/ml 5C9 IgG [2]: 39.3 pmol/mL
Cyclic AMP concentration; 3 ng/mL M22 IgG + 0.01 µg/ml 5C9 IgG [2]: 42.3 pmol/mL
Cyclic AMP concentration; 3 ng/mL M22 IgG + 0.1 µg/ml 5C9 IgG [2]: 2.9 pmol/mL
Cyclic AMP concentration; 3 ng/mL M22 IgG + 0.5 µg/ml 5C9 IgG [2]: 1 pmol/mL
Cyclic AMP concentration; 3 ng/mL M22 IgG + 1 µg/ml 5C9 IgG [2]: 0.8 pmol/mL
Cyclic AMP concentration; 3 ng/mL M22 IgG + 5 µg/ml 5C9 IgG [2]: 0.2 pmol/mL
Cyclic AMP concentration; 3 ng/mL M22 IgG + 10 µg/ml 5C9 IgG [2]: 0.3 pmol/mL
Cyclic AMP concentration; 3 ng/mL M22 IgG + 50 µg/ml 5C9 IgG [2]: 0.3 pmol/mL
Cyclic AMP concentration; 3 ng/mL M22 IgG + 100 µg/ml 5C9 IgG [2]: 0.4 pmol/mL
Cyclic AMP concentration; 5C9 IgG 100 µg/mL alone [2]: 0.5 pmol/mL
% Inhibition; T1 serum + 100 µg/mL 5C9 IgG [3]: 98.7%
% Inhibition; T2 serum + 100 µg/mL 5C9 IgG [3]: 98.2%
% Inhibition; T3 serum + 100 µg/mL 5C9 IgG [3]: 97.8%
Cyclic AMP concentration; 100 µg/mL 5C9 IgG alone [3]: 1 pmol/mL
Cyclic AMP concentration; HBD + 100 µg/mL 5C9 IgG [3]: 0.9 pmol/mL
Cyclic AMP concentration; T1 serum + 100 µg/mL 5C9 IgG [3]: 1.3 pmol/mL
Cyclic AMP concentration; T2 serum + 100 µg/mL 5C9 IgG [3]: 1.1 pmol/mL
Cyclic AMP concentration; T3 serum + 100 µg/mL 5C9 IgG [3]: 1.4 pmol/mL
% Inhibition of constitutive activity; 0.001 µg/mL 5C9 IgG [4]: 0%
% Inhibition of constitutive activity; 0.01 µg/mL 5C9 IgG [4]: 1%
% Inhibition of constitutive activity; 0.1 µg/mL 5C9 IgG [4]: 13%
% Inhibition of constitutive activity; 0.3 µg/mL 5C9 IgG [4]: 50%
% Inhibition of constitutive activity; 1 µg/mL 5C9 IgG [4]: 61%
% Inhibition of constitutive activity; 3 µg/mL 5C9 IgG [4]: 63%
% Inhibition of constitutive activity; 10 µg/mL 5C9 IgG [4]: 56%
% Inhibition of constitutive activity; 100 µg/mL 5C9 IgG [4]: 52%
Cyclic AMP concentration (constitutive activity); 0.001 µg/mL 5C9 IgG [4]: 19.1 pmol/mL
Cyclic AMP concentration (constitutive activity); 0.01 µg/mL 5C9 IgG [4]: 18.6 pmol/mL
Cyclic AMP concentration (constitutive activity); 0.1 µg/mL 5C9 IgG [4]: 16.3 pmol/mL
Cyclic AMP concentration (constitutive activity); 0.3 µg/mL 5C9 IgG [4]: 9.3 pmol/mL
Cyclic AMP concentration (constitutive activity); 1 µg/mL 5C9 IgG [4]: 7.4 pmol/mL
Cyclic AMP concentration (constitutive activity); 3 µg/mL 5C9 IgG [4]: 6.9 pmol/mL
Cyclic AMP concentration (constitutive activity); 10 µg/mL 5C9 IgG [4]: 8.3 pmol/mL
Cyclic AMP concentration (constitutive activity); 100 µg/mL 5C9 IgG [4]: 9 pmol/mL
% Inhibition; 5C9 IgG 0.003 µg/mL + 3 ng/mL pTSH [5]: 10.4%
% Inhibition; 5C9 IgG 0.0075 µg/mL + 3 ng/mL pTSH [5]: 76.5%
% Inhibition; 5C9 IgG 0.01 µg/mL + 3 ng/mL pTSH [5]: 1%
% Inhibition; 5C9 IgG 0.025 µg/mL + 3 ng/mL pTSH [5]: 26%
% Inhibition; 5C9 IgG 0.05 µg/mL + 3 ng/mL pTSH [5]: 62.8%
% Inhibition; 5C9 IgG 0.1 µg/mL + 3 ng/mL pTSH [5]: 81.8%
% Inhibition; 5C9 IgG 0.3 µg/mL + 3 ng/mL pTSH [5]: 87.5%
% Inhibition; 5C9 IgG 1 µg/mL + 3 ng/mL pTSH [5]: 92.3%
% Inhibition; 5C9 IgG 3 µg/mL + 3 ng/mL pTSH [5]: 92.8%
% Inhibition of T13 serum stimulation; 100 µg/mL 5C9 IgG [6]: 97.5%
% Inhibition of T14 serum stimulation; 100 µg/mL 5C9 IgG [6]: 94.9%
% Inhibition of T15 serum stimulation; 100 µg/mL 5C9 IgG [6]: 96.9%
Cyclic AMP concentration; 100 µg/mL 5C9 IgG alone [6]: 0.9 pmol/mL
Cyclic AMP concentration; HBD + 100 µg/mL 5C9 IgG [6]: 1 pmol/mL
Cyclic AMP concentration; T13 serum + 100 µg/mL 5C9 IgG [6]: 1.2 pmol/mL
Cyclic AMP concentration; T14 serum + 100 µg/mL 5C9 IgG [6]: 1.4 pmol/mL
Cyclic AMP concentration; T15 serum + 100 µg/mL 5C9 IgG [6]: 1.6 pmol/mL
Mean absorbance at 405 nm (absorbance at 405 nm) (TSHR260-AP (human)): 0.004
Mean absorbance at 405 nm (absorbance at 405 nm) [7]: 0.099
B1: 5C9 IgG (antibody, from another filing, V domains shown)
VH: EVQLVESGGGLIQPGGSLRLSCAASGFTVSSNYMSWVRQAPGKGLEWVSVTYSGGSTSYADSVKGRFTISRDNSKNTLYLQMNSLRAEDTAVYYCARGGRYCSSISCYARSGCDYWGQGTLVTVSS
VL: AIQMTQSPSSLSASVGDRVTITCRASQSISNYLNWYQQKPGKAPKLLIYAASSLQSGVPSRFSGSGSGTDFTLTISSLQPEDFATYYCQQSYSSPSTTFGQGTKLEIK
